Molecular target: T1, Fms-related tyrosine kinase 3 (FLT3) on FLT3-expressing target cells (human, UniProt P36888 27-993)
T1 sequence (looked up): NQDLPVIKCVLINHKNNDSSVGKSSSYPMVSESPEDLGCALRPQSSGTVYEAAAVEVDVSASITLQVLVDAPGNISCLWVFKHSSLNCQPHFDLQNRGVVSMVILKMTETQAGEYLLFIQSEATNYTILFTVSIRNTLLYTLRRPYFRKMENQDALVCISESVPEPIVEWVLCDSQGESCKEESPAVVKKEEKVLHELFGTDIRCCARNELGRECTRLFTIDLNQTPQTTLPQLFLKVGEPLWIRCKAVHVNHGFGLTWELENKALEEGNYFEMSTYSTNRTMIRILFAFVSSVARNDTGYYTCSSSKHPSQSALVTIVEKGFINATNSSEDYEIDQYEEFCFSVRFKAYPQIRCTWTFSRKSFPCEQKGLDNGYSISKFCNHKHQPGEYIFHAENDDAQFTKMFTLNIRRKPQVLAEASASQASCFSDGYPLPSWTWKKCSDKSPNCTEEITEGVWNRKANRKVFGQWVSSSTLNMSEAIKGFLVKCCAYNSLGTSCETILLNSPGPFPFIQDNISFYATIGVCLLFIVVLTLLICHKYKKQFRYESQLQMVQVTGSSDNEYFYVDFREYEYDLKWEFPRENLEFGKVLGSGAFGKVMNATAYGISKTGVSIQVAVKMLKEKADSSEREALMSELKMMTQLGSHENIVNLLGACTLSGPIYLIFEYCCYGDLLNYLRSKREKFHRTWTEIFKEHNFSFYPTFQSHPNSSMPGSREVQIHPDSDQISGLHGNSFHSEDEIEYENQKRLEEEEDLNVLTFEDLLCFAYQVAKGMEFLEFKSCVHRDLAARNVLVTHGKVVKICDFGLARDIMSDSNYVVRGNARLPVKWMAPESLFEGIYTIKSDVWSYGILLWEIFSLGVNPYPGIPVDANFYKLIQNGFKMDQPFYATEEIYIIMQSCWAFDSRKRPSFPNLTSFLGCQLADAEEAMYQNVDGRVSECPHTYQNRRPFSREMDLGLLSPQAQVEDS
Experiment: cell-based or functional assay

B1: FLCAR (chimeric antigen receptor with an FLT3-binding extracellular portion of human FLT3 ligand, CD28 transmembrane and costimulatory regions and a CD3-zeta … (other)
chain: TQDCSFQHSPISSDFAVKIRELSDYLLQDYPVTVASNLQDEELCGGLWRLVLAQRWMERLKTVAGSKMQGLLERVNTEIHFVTKCAFQPPPSCLRFVQTNISRLLQETSEQLVALKPWITRQNFSRCLELQCQGKHLCPSPLFPGPSKPFWVLVVVGGVLACYSLLVTVAFIIFWVRSKRSRLLHSDYMNMTPRRPGPTRKHYQPYAPPRDFAAYRSGSRSADAPAYQQGQNQLYNELNLGRREEYDVLDKRRGRDPEMGGKPRRKNPQEGLYNELQKDKMAEAYSEIGMKGERRRGKGHDGLYQGLSTATKDTYDALHMQALPPR
modifications: partially phosphorylated on tyrosine
IL-2 expression (quantitative RT-PCR): > 5 fold
